According to paper PMC10641286:
Like-named read-outs stand apart in the source and are kept apart here.

Legend:
chymase [1] = biological target: chymase (UniProt P23946)
chymase [2] = biological target: chymase (UniProt P23946); assay: second-order rate constant of inhibition, discontinuous method (residual enzymatic activity); rIxsS41 25-300 nM (chymase) or 100-1600 nM (cathepsin G) pre-incubated 0-15 min at 37°C with constant protease (0.1 µg); kobs plotted against rIxsS41
cathepsin G [3] = biological target: cathepsin G (UniProt P08311); assay: as above
chymase [4] = biological target: chymase (UniProt P23946); assay: stoichiometry of inhibition (residual enzymatic activity, colorimetric substrate); various concentrations of rIxsS41 (molar ratios 0-10) with a constant concentration of protease, 1 h at 37°C; linear regression of the inhibitory curve; settings: scale: molecules of rIxsS41 per molecule of protease
cathepsin G [5] = biological target: cathepsin G (UniProt P08311); assay: as above; settings: scale: molecules of rIxsS41 per molecule of protease
trypsin IV = trypsin IV (UniProt P35030)
chymase [6] = biological target: chymase (UniProt P23946); remark: listed apart in the source
cathepsin G [7] = biological target: cathepsin G (UniProt P08311)
chymase [8] = biological target: chymase (UniProt P23946); assay: second-order rate constant of inhibition, discontinuous method (residual enzymatic activity); rIxsS41 25-300 nM (chymase) or 100-1600 nM (cathepsin G) pre-incubated 0-15 min at 37°C with constant protease (0.1 µg); kobs plotted against rIxsS41; remark: listed apart in the source
cathepsin G [9] = biological target: cathepsin G (UniProt P08311); assay: as above; remark: listed apart in the source

UniProt P23946, sequence (P23946 22-247): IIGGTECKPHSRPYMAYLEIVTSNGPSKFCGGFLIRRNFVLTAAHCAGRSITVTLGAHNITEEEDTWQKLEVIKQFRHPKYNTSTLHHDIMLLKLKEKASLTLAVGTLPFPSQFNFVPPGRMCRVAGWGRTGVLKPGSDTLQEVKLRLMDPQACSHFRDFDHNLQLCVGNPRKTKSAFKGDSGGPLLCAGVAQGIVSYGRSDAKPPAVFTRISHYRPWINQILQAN
UniProt P08311, sequence (P08311 21-244): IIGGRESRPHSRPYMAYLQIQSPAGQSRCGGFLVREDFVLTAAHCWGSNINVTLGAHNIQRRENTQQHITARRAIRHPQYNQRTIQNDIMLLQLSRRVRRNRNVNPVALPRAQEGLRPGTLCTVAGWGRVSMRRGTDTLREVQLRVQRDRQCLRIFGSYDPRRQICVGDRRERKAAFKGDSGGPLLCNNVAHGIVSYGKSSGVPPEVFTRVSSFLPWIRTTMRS
UniProt P35030, sequence (P35030 81-304): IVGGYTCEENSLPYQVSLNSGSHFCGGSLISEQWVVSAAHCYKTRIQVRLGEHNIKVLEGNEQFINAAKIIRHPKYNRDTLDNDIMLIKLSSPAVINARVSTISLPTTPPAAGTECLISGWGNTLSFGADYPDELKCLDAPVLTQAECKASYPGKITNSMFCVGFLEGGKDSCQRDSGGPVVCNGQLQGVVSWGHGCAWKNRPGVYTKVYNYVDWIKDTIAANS

recombinant Ixodes scapularis nymph tick saliva serpin 41 (rIxsS41) (natural protein)
C48/80-induced (chymase-mediated) paw edema in BALB/c mice, co-injection of C48/80 (1 µg) with rIxsS41 (25 µg); the chymase is the mouse's own (chymase [1]): 85%
ka (second-order rate constant of inhibition) (chymase [2]): 6600 M⁻¹ s⁻¹
ka (second-order rate constant of inhibition) (cathepsin G [3]): 2400 M⁻¹ s⁻¹
stoichiometry of inhibition (SI) (chymase [4]): 2.8
stoichiometry of inhibition (SI) (cathepsin G [5]): 2.2
inhibition of enzymatic activity (chromogenic substrate hydrolysis), rIxsS41 1 µM, thrombin 19.8 nM, pre-incubated 15 min at 37°C (thrombin): 100%
inhibition of enzymatic activity (chromogenic substrate hydrolysis), rIxsS41 1 µM, trypsin IV 12.5 nM, pre-incubated 15 min at 37°C (trypsin IV): 100%
inhibition of enzymatic activity (chromogenic substrate hydrolysis), rIxsS41 1 µM, chymase 34.2 nM, pre-incubated 15 min at 37°C (chymase [6]): 100%
inhibition of enzymatic activity (chromogenic substrate hydrolysis), rIxsS41 1 µM, pancreatic trypsin 0.5 nM, pre-incubated 15 min at 37°C (pancreatic trypsin): 100%
inhibition of enzymatic activity (chromogenic substrate hydrolysis), rIxsS41 1 µM, cathepsin G 154.4 nM, pre-incubated 15 min at 37°C (cathepsin G [7]): 100%
inhibition of enzymatic activity (chromogenic substrate hydrolysis), rIxsS41 1 µM, chymotrypsin 25.7 nM, pre-incubated 15 min at 37°C (chymotrypsin): 100%
ka (second-order rate constant of inhibition) (chymase [8]): 2400 M⁻¹ s⁻¹
ka (second-order rate constant of inhibition) (cathepsin G [9]): 1700 M⁻¹ s⁻¹
